Reference: patent publication US20230080534A1, “SEMG2 ANTIBODY AND USE THEREOF” (SHANGHAI BIOTROY BIOTECHNIQUE CO., LTD., priority 2020, published 2023)
“Also recorded” adds a separate entry of the source.

T1: binding between SEMG2 and CD27 (Homo sapiens, UniProt Q02383)
T1 sequence (Q02383 24-582): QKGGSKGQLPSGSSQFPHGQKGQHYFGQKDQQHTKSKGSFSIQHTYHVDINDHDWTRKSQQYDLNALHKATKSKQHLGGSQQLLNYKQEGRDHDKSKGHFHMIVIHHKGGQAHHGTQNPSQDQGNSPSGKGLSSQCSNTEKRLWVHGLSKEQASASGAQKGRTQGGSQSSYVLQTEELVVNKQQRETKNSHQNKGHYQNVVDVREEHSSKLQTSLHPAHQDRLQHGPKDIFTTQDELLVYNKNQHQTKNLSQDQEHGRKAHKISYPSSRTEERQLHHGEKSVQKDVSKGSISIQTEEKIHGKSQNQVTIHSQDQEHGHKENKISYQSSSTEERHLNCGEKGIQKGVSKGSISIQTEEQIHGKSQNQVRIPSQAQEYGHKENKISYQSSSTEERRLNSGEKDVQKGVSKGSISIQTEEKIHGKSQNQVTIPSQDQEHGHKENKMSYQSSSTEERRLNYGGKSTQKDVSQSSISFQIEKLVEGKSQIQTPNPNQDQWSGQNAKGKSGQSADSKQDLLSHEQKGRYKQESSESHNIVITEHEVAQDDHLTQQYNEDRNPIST

B1: MM02: mouse monoclonal antibody against SEMG2(497-509), mIgG2b kappa, VH SEQ ID NO:35, VL SEQ ID NO:42 (antibody, V domains shown)
VH: QIQLVQSGPEVKKPGETVRISCKASGYTLTTAGIQWVQKMPGKGLKWIGWINTHSGVPEYAEDFKGRFAFFLETSASTAYLQISNLKNEDTATYFCARLGLLGYWGQGTTLTVSS
VL: DILLTQSPAILSVSPGERVSFSCRASQSIGTTIHWYQQRTNGSPRLLIKYASESISGIPSRFSGSGSGTDFTLSINSVESEDIADYYCQQSNSWPWTFGGGTKLEIKRA
modifications: UNSURE (1)..(115) VH; UNSURE (1)..(109) VL
B2: MM05: mouse monoclonal antibody against SEMG2(497-509), mIgG1 kappa, VH SEQ ID NO:36, VL SEQ ID NO:43 (antibody, V domains shown)
VH: QVQLQQPGAELVRPGASVKLSCEASGYTFTSYWMNWVKQRPGQGLEWIGMIDPSDSETHYNQMFKDKATLTVDKSSSTAYMQLSSLTSEDSAVYYCARYLGGKEGSFDYWGQGTTLTVSS
VL: DIVMSQSPSSLAVSAGEKVTMSCKSSQSLLNSRTRKNYLAWYQQKPGQSPKLLIYWASTRESGVPDRFTGSGSGTDFTLTISSVQAEDLAVYYCKQSYSLPWTFGGGTKLEIKRA
modifications: UNSURE (1)..(120) VH; UNSURE (1)..(115) VL

Legend:
[1] = biological target: T1, binding between SEMG2 and CD27; assay: Antibody blocking ELISA of SEMG2 binding to CD27-Fc; conditions: for effect on the binding between SEMG2 and CD27: antibody 10 μg/mL; for blocking of binding between SEMG2 and CD27 with increasing antibody concentration: wide range of concentration
Text: Because SEMG2 (497-509) sequence fragment is the key epitope of SEMG2 binding to CD27, and has a relatively short sequence, so SEMG2 (497-509) was used as an immunogen to prepare antibodies, which is theoretically easier to obtain functional antibody molecules with the function of blocking the binding between SEMG2 and CD27 than using full-length SEMG2 to prepare antibodies. For direct comparison, the differences in effective concentration of producing antibody by the two methods were verified using ELISA in the examples. Antibodies produced with SEMG2 (497-509) as immunogen and antibodies produced with full-length SEMG2 were added into the enzyme-linked immunosorbent assay (ELISA) reaction system at different concentrations (10^-2, 10^-1, 10^0, 10^1, 10^2, 10^3, 10^4 μg/mL), and the ELISA binding values were measured. The specific steps of enzyme-linked immunosorbent assay are as follows: (1) Dissolve SEMG2 protein antigen with 50 mM carbonate coating buffer (pH 9.6) to make the antigen concentration 10 μg/mL, and add into 96-well ELISA plate (purchased from Corning) at 100 μL/well, place at 4° C. overnight. (2) After discarding the coating solution on the next day, wash with PBST for three times, add 150 μL of 1% BSA to each well, and block for 2 hours at 37° C. […] (4) After washing for 5 times with PBST, add 100 of diluted HRP-labeled anti-human Fe secondary antibody, and incubate at 37° C. for 1 hour. (5) After washing with PBST for 5 times, 20 min after developing with chromogenic agent, the A450 absorption value was read using the microplate reader.
The SEMG2 (497-509) sequence was used to synthesize a polypeptide and coupled to a VLP carrier for immunization; HEK293 cells were used to express the full-length SEMG2 protein, and the purity was tested to reach 92%, and the binding activity of SEMG2 protein to CD27 was verified by ELISA. The protein and polypeptide antigens were used to immunize 10 mice respectively, and multiple immunizations were performed to enhance the effect: (1) The first immunization, 50 μg/mice of antigen, multiple subcutaneous injections together with Freund's complete adjuvant, with an interval of 3 weeks; (2) the second immunization; the same dosage and route as above, with incomplete Freund's adjuvant, and with an interval of 3 weeks; (3) the third immunization, the same dosage as above, without adjuvant, intraperitoneal injection with an interval of 3 weeks; (4) the booster immunization, the dose is 50 μg, intraperitoneal injection. 3 days after the last injection, blood was collected to measure its titer and the immune effect, and mice with higher titers were selected for hybridoma fusion screening. After subcloning, the binding of the monoclonal antibodies to the target antigens was detected by ELISA, and the function of different monoclonal antibodies in blocking the binding between SEMG2 and CD27 was measured by ELISA.
First, SEMG2(497-509) epitope-specific antibodies (for example, MM02, MM05) were compared with other epitope-specific antibodies (for example, HPA042767) for their function in blocking binding between SEMG2 and CD27 at different concentration ranges. […] The blocking function of different antibodies (irrelative mouse IgG, MM02, MM05, HPA042767) on binding between SEMG2 and CD27 was analyzed by the ELISA experiment as described in Example 11.
Further, the effects of different antibodies on the binding between SEMG2 and CD27 were compared under the condition of the same antibody concentration. In the ELISA, the same concentration (10 μg/mL) of antibody was used, and the strength of the binding between SEMG2 and CD27 was measured. […]

SEMG2(497-509) fragment = biological target: T2, SEMG2(497-509) fragment (Homo sapiens, UniProt Q02383); assay: ELISA binding of antibodies to SEMG2(497-509) epitope
T2 construct: SEMG2(497-509) fragment and SEMG2(563-574) fragment were immobilized on the ELISA plate; made in house; host or cells: chemical synthesis
Method: Specifically, SEMG2 full-length protein (1-582), SEMG2(354-403) fragment, SEMG2(442-453) fragment, SEMG2(497-509) fragment and SEMG2(563-574) fragment were immobilized on the ELISA plate, and the same concentration of antibodies (MM02, MM05, MM07, MM08, MM13, MM14, HPA042767 and HPA042835) were added. Anti-mouse or anti-rabbit secondary antibodies were then used to detect the corresponding bound antibodies. MM02, MM05, MM07, MM08, MM13, and MM14 all bound to SEMG2(497509) epitope, HPA042767 bound to SEMG2 (354-403) epitope, and HPA042835 bound to […], while none of the antibodies bound to SEMG2 (442-453) control fragment.
Specifically, the preparation of polypeptide antigens and the screening of human natural antibody library were firstly performed. The SEMG2(497-509) polypeptide was synthesized and coupled to BSA and KLH, respectively, and screened in a fully human phage display antibody library. ELISA was used to select clones that bind to antigenic epitopes for preliminary screening. Different unique sequences were obtained after sequencing single colonies, sorted according to affinity sorting, and full-length antibodies were constructed from antigen-binding fragments (Fab) with relatively high affinity. The binding ability and blocking function tests were performed after purification, that is, the effect of the antibody on binding between SEMG2 and CD27 was determined by the ELISA experiment.

Row | Molecule | effect on the binding between SEMG2 and CD27 [1] | blocking of binding between SEMG2 and CD27 with increasing antibody concentration [1] | binding to SEMG2(497-509) epitope (SEMG2(497-509) fragment)
1 | B1 | significantly reduced the binding | gradually decreased | able to hind to SEMG2(497-509); also recorded: bound
2 | B2 | significantly reduced the binding | gradually decreased | able to hind to SEMG2(497-509); also recorded: bound
